# Measured values published in a protein production outcome set (Wang et al. 2014).
# Assay: label from the status in PepcDB records
row,Sequence,protein production
1,MAFIAVHDGLTGLHNRTFLTDHFDTLIKGAHRRRERLAVVQLDLDRFKQINDTLGHAAGDYVLVVTAQRMRDSCRASDLCARLGGDEFVMILNGAGSTEDINMLARRILAHINEPIVFQGTTILPGASGGIAVYPIDADNAQDLLVHADLALYSAKKLGGGNFSFFSEELRRELDYRKQLEHDIKVAISERAFQVYFQPQVSLTDGTISGIEALVRWNHHERGMISPGEFIPVAEKCGFMPEIGRIVIGKAINEAAEWNRAGIAFGRLAVNVSGTELREHDFDAFLFETLEKAGLPPQKLSLEIVESVILDDEKTGIAAKLRHIRAAGIHLELDDFGTGYASLSHVNPNEIDRLKIDRRFVQNIHENGDNSKIVRAITELARGLGISIVAEGAETEAELDSLMAIGCDQVQGYSIAFPMPQDKALEWLTARMPKKAKLRVLQGSLA,failed
2,MAFLIISLIIMLIGLLRLKINKRSIIGGIFLASGLILSLASLFFELLNLIYLYLPSGDFATLIIAYGILPLIFLLVCGYFIFNSKTMRTKEGKSATAKLSALFGLNLLIAFPALFMLFTFSTKTIPQIIWYILLYILLIDIILCFLFAAYILYSWMSQMIPLQKKIDYIIILGSGVRSEEVPPLLKSRLDKGIEYYQKNPTAKFVVSGGQGADEPVSEAFAMRKYLHSQNIPNHQILFEDKFTTTYENMLFSKRIINEDWSDKEMPPSIIFSTNNYHVLRGSLYAQRVKLKAQGVGGTHSTLFLTYGLNS,failed
3,MAFNHLPAGVHDALGPLSVMPVTHSLPMAKNHRPDRSSSDTASSPSPGTVLDRLASGPSRASRITHTEHLPPREGRHAVWPDRIRSEVIAAVQAAGIEHPWAHQARAAEHALDGESVVVATGTASGKSLAYLVPALSALLDGSEAPNGRGATALYLAPTKALAADQCRSVKELSQPLGTAVRPAVYDGDTPVEEREWVRQYANYVLTNPDMLHRGILPAHPRWSSFLRALRYVVIDECHTYRGVFGSHVAQVLRRLRRLCARYGASPVFLLASATAAEPSVAASRLTGLRVVEVADDASPRGELVFALWEPPLTELHGEKGAPVRRTATAETADLLTDLTLQGVRSVAFVRSRRGAELIAVIAQERLAEIDRSLARRVAAYRGGYLPEERRALERALHSGELLGLAATTALELGVDVSGLDAVVIAGYPGTRASLWQQAGRAGRSGQGALAILVARDDPLDTFLVHHPEALFDQPVESTVLDPDNPYVLAPHLCAAAEELPLVEEDLALFGPSTADLLPQLEAAKLLRRRTKAWHWTRRERAADLTDIRGEGGRPVQIVEAGTGRLLGTVDAGAAHTTVHEGAVHLHQGRTYLVRELDLEDSVALVEEANPSYSTVARDTTAISVLETDVEVPWGEGRLCYGSVEVTNQVVSFLRRRLITGEVLGETKLDLPPRTLRTRAVWWTVTEDQLDAARITPEILGGALHAAEHASIGMLPLFATCDRWDIGGVSVPLHPDTLLPTVFVYDGHPGGAGFAERAFHTARDWLTATRQAIASCECDAGCPSCIQSPKCGNGNDPLHKRGAVRLLSVLLRGAAEQEKAGLPKEPARAAESSAD,failed
4,MAGAAQSHAVPGFRRNMVTICAMTATIMQALDTTIANVALPYMQGSLSASQDQINWVLTSYIVAAAIMTAPVGWIANRFGRKRIFIICSAGFTIASVMCGLAQDITQMVVFRLLQGVFGAALVPLSQAVMLDSYALHERAKAMSIWGMGVMMGPIMGPSLGAWLTETYSWHWVFFVNLPFGAITVLGLAMFMDETDKNQELKFDWFGFAALAVGIGAMQLALDRGEQLDWFNSPEIIIESIVSVVGFYYFFAHSFTTERPFIQFAIFKDRNFVGGVVFMTVMGLVLFSTMALSSPFLQNVEGYPIMTAGLLLASRGCGTFVAMMIVGRIMRYIEARTLIATGLSLTCASLYVMTGWTDQTSVSSVVVTSIIQGFGFGLVFVPLSTVAFMTLPGQLRTDGTAMLTLVRNVASSVGISVVIAKLSSGTTTAHAILTEHINPFNNALQMPNVTGMIDLSTTTGKAMMDAIVTMQAQIIAFSHDYAMVMFLTAAAVPMAIIIGSTKAALRKQSEAPADHAAVME,failed
5,MAGAMRKMAVYLGLVEDDGYDGRGFDPDDDFEPELDPEPERDRRRHEPPHQSHQALHPQRDESVRVVQPPMQRDPVPHSASLPAESVRPARIAPVASITQERQSLEKNAPVIMPKVVSEREPYRITTLHPRTYNEARTIGEHFREGTPVIMNLTEMDDTDAKRLVDFAAGLVFGLHGSIERVTQKVFLLSPANVDVTAEDKARIAEGGFFNQSLEHHHHHH,not failed
6,MAGDQELELRFDVPLYTLAEASRYLVVPRATLATWADGYERRPANAPAVQGQPIITALPHPTGSHARLPFVGIAEAYVLNAFRRAGVPMQRIRPSLDWLIKNVGPHALASQDLCTDGAEVLWRFAERSGEGSPDDLVVRGLIVPRSGQYVFKEIVEHYLQQISFADDNLASMIRLPQYGDANVVLDPRRGYGQPVFDGSGVRVADVLGPLRAGATFQAVADDYGVTPDQLRDALDAIAA,not failed
7,MAGGLGKCSKIRHIVRLRQMLRRWRDQARMSSSFSRCVPSDVPSGHVAVYVGSSCRRFVVRATYLNHPVLRNLLVQAEEEFGFVNQGPLVIPCEESVFEESIRFISRSDSTRSRRFTCPDDFQKNCHVVGIRSKLDLWIESRPLLHGVTEKAVW,failed
8,MAGIRLLPEEPETTPQQQARAAAAVTTTTTDSLASDDDRSIAADSWSIKSEYGSTLDDDQRHADAAEALSSANFRVSSDYSSDKEEPDADGGGQSMLGLQSYWDAAYSDELTNFREHGHAGEVWFGDDVMEIVTSWTKDLCVEISQRNMSVSENDVTTEVNDQADKYLSSWNVLDLGTGNGLLLHQLAKEGFSDLTGTDYSDGAVELAQHLSQRDGFPNIRFMVDDILDTKLEQQFKLVMDKGTLDAIGLHPDGPVKRVMYWDSVSKLVAPGGILVITSCNHTKDELVEEVENFNIRKSNLCRGDGNDANNVLSSGSEAASRIDQPPFEYLSHVRTYPTFMFSGSVGSRVATVAFLRK,failed
9,MAGLAARLVLLAGAAALASGSQGDREPVYRDCVLQCEEQNCSGGALNHFRSRQPIYMSLAGWTCRDDCKYECMWVTVGLYLQEGHKVPQFHGKWPFSRFLFFQEPASAVASFLNGLASLVMLCRYRTFVPASSPMYHTCVAFAWVSLNAWFWSTVFHTRDTDLTEKMDYFCASTVILHSIYLCCVRTVGLQHPAVVSAFRALLLLMLTVHVSYLSLIRFDYGYNLVANVAIGLVNVVWWLAWCLWNQRRLPHVRKCVVVVLLLQGLSLLELLDFPPLFWVLDAHAIWHISTIPVHVLFFSFLEDDSLYLLKESEDKFKLD,failed
10,MAGNSLVLPIVLWGRKAPTHCISSILLTDDGGTIVTGCHDGQICLWDVSVELEVNPRALLFGHTASITCLSKACASGDKRYTVSASANGEMCLWDVNDGRCIEFTKLACTHTGIQFYQFSVGNQQEGRLLCHGHYPEILVVDATSLEVLYSLVSKISPDWISSMSIIRSQRTQEDTVVALSVTGILKVWIVTSEMSGMQDTEPIFEEESKPIYCQNCQSISFCAFTQRSLLVVCSKYWRVFDAGDYSLLCSGPSENGQTWTGGDFVSADKVIIWTENGQSYIYKLPASCLPASDSFRSDVGKAVENLIPPVQHSLLDQKDKELVICPPVTRFFYGCKEYLHKLLIQGDSSGRLNIWNIADIAEKQEADEGLKMTTCISLQEAFDKLKPCPAGIIDQLSVIPNSNEPLKVTASVYIPAHGRLVCGREDGSIIIVPATQTAIVQLLQGEHMLRRGWPPHRTLRGHRNKVTCLLYPHQVSARYDQRYLISGGVDFSVIIWDIFSGEMKHIFCVHGGEITQLLVPPENCSVSRFI,failed
11,MAGRRMKRLRAFFYVQHLLGIGHLARASRIAAALADDGFDITVVTGGPPIAGFPGQGVKSVTLPPVTSGDNGFSGLVDLQGKPIDDDFKKRRSEMLLQAFRDCRPDIVIVEAFPFGRRQMRFELLPLLETIEATSPRPLLATSVRDILQERVKPGRNEETVDLINRHFDLVMVHGDPAFTTIDKTFPLAGAITAEVTYTGLVGAPPSPAAAERFDILVSVGGGAAGRRLVSSTLAAARIANGWKWCLITGPNLPKDEFDVIACDATPGLSIFRFREDFASLLTGARLSVSQAGYNTVCDVLRAGCRSLLVPFAAGGETEQTVRALMLEELGLATVLTENDLTPDGLAQAIEQALAGPTPSAHRLDLEGARHSAQILRERYRTWSLKMGSGFGKEHDQTDDGS,failed
12,MAGSVACRLRPGMAAGGTGMKRYVIFAAIGPLIGGLLLLFATTYQSGYWAHTNLTEVQKFFVVLFKSLQYSYLFGLLPALMMAAIDEIICHIRRVGPGGRVVIVGVIGFLATAFMYGNRGADAGVLQFVLYGLVGLVPATLSSWLANKFCAPVTAETKPASA,failed
13,MAGSVADSDAVVKLDDGHLNNSLSSPVQADVYFPRLIVPFCGHIKGGMRPGKKVLVMGIVDLNPESFAISLTCGDSEDPPADVAIELKAVFTDRQLLRNSCISGERGEEQSAIPYFPFIPDQPFRVEILCEHPRFRVFVDGHQLFDFYHRIQTLSAIDTIKINGDLQITKLG,failed
14,MAGTDFEPDVKVRSREYRIGCVGAGMIMAECHLAAYAQAGFPVVAIASRTKASAEKVARRWDIPIVHDTPEQLIEDSKVEIVDLAFPPDQQPALIRHALKQPHIKAILAQKPLALTVEEAIKLRDEAAKSGKILSVNQNMRYDQSMRVLKQIIDSGALGDIVFAQIDMHAIPHWQAFLADYDRLTLANMSVHHLDVLRFLFGDPHEITTLTRKDPRTTFDHSDGITVSTLRFPSGVLAVSLEDVWSGPREQGYRDDQHINWRVDGTKGVAKGTIGWPTGVASTLTYASTQTTGGEWVTPSWDTMWFPHAFIGVMEQLQYAVKTGTPPALSVADNVKTMALVEAGYRSMAEGRTVRLSEISTN,failed
15,MAGTIAIKNGYVFDPLNEINGEKMDIFIRDGKVVKELSASEMKTSRVIDASGMTVMPGGVDSHSHVAGAKVNAGRSMRPEDHYKANLKKTPLTHSGSGYTVPSVYKQGYDYAAMGYTTVFEAAVPPLEARHTHEEMRATPLLDMGGYLVLGNNFFLMRYLRDGDMEKAAAYVAWMMKTHKTYGIKCVNPAGVENWAWGKNVSTLDETNIHFEITPREVIKGLTEVNETLGMPMPVHLHANNLGHPGCYAITKDSLKIPDGVKTKQNMAVEWAETKMDLSRDRSVYLTHLMFNSFAGTTWGDCESGVKDIADYINNKDHVVIDSGCTPFGEATVMTGDGPAIHDLYTLTGNKWSNTDVEMECGSGVLPFTYLKSNPVHSLQWAMGLECLLLIKDPWKTIMTTDSPNGGPFTKYPEVMTWIMSEAFRKQTFSECHKWANDRSELGGINRELSLYDLAILTRANPAKTIGMAHRKGSLGVGADGDVTVYNINPQQLDANNYEALLRTFRKAEYTVKGGEIVAVKGEIVSLPEKRTYYSEVHVENEREKEMLVDVKEWFRYYTLGFANYSTPEKYLANPTPIQVNSER,failed
16,MAGYVGDVAIAYDRDLGHVLFEQYASDIARRTAGKPVRDVLEVASGTGIVTRQLRNVLPGDAQLTAIDISDSMMEVARTKFLPHEQVTFQVANAVALPFDDRAFDTVVCQFGVMFFDKDKAFQETHRVLRQGGRYLFSVWDSRDYNPYASLTFEVMKQFFPSDPPRFLESTVSSFEIDPVKERLIRAGFEQISISVQRRIYDIPDIRAFARGLIFSPIINEIRERGEVDPDDIVEALVKIFIGEYGSNPTRFPMQAILFETEKPLEHHHHHH,failed
17,MAHHTKETMELIKELVSIPSPSGNTAKIINFIENYVSEWNVETKRNNKGALILTVKGKNDAQHRLLTAHVDTLGAMVKEIKPDGRLSLSMIGGFRWNSVEGEYCEIETSSGKTYTGTILMHQTSVHVYKDAGEAKRDEKNIEVRIDERVFSADEVRELGIEVGDFVSFDPRVQITESGYIKSRHLDDKVSVAILLKLIKRLQDENVTLPYTTHFLISNNEEIGYGGNSNIPEETVEYLAVDMGALGDGQASDEYTVSICAKDSSGPYHYALRKHLVELAKTNHIEYKVDIYPYYGSDASAAIRAGFDVKHALIGAGIDSSHAFERTHESSIAHTEALVYAYVMSNLIEE,not failed
